Measurements reported in FireProtDB (doi:10.1021/bi051692c).

B1: Band 3 anion transport protein, P02730 (parent)
chain: MEELQDDYEDMMEENLEQEEYEDPDIPESQMEEPAAHDTEATATDYHTTSHPGTHKVYVELQELVMDEKNQELRWMEAARWVQLEENLGENGAWGRPHLSHLTFWSLLELRRVFTKGTVLLDLQETSLAGVANQLLDRFIFEDQIRPQDREELLRALLLKHSHAGELEALGGVKPAVLTRSGDPSQPLLPQHSSLETQLFCEQGDGGTEGHSPSGILEKIPPDSEATLVLVGRADFLEQPVLGFVRLQEAAELEAVELPVPIRFLFVLLGPEAPHIDYTQLGRAAATLMSERVFRIDAYMAQSRGELLHSLEGFLDCSLVLPPTDAPSEQALLSLVPVQRELLRRRYQSSPAKPDSSFYKGLDLNGGPDDPLQQTGQLFGGLVRDIRRRYPYYLSDITDAFSPQVLAAVIFIYFAALSPAITFGGLLGEKTRNQMGVSELLISTAVQGILFALLGAQPLLVVGFSGPLLVFEEAFFSFCETNGLEYIVGRVWIGFWLILLVVLVVAFEGSFLVRFISRYTQEIFSFLISLIFIYETFSKLIKIFQDHPLQKTYNYNVLMVPKPQGPLPNTALLSLVLMAGTFFFAMMLRKFKNSSYFPGKLRRVIGDFGVPISILIMVLVDFFIQDTYTQKLSVPDGFKVSNSSARGWVIHPLGLRSEFPIWMMFASALPALLVFILIFLESQITTLIVSKPERKMVKGSGFHLDLLLVVGMGGVAALFGMPWLSATTVRSVTHANALTVMGKASTPGAAAQIQEVKEQRISGLLVAVLVGLSILMEPILSRIPLAVLFGIFLYMGVTSLSGIQLFDRILLLFKPPKYHPDVPYVKRVKTWRMHLFTGIQIICLAVLWVVKSTPASLALPFVLILTVPLRRVLLPLIFRNVELQCLDADDAKATFDEEEGRDEYDEVAMPV

Variants of: B1
Details: Homo sapiens, reversible: No, structure 1HYN, whole UniProt chain shown; for Tm / change of melting temperature, mutant - wild type (higher = more stable): Thermal, sodium phosphate 10 mM; for denaturant midpoint (higher = more stable): 24 °C, Urea, Fluorescence, sodium phosphate sodium borate 50 mM 50 mM, sodium chloride 70 mM
[1] = pH 7, CD, sodium fluoride 50 mM
[2] = pH 7.5, DSC, sodium chloride 50 mM

## K56E
[1]
  Tm: 67.7 °C
  change of melting temperature, mutant - wild type (higher = more stable): -1.3 °C
[2]
  Tm: 66.5 °C
  change of melting temperature, mutant - wild type (higher = more stable): 0.3 °C

## E40K
pH 7
  denaturant midpoint (higher = more stable): 4.73 M
[2]
  Tm: 64.9 °C
  change of melting temperature, mutant - wild type (higher = more stable): -1.3 °C

## G130R
pH 7
  denaturant midpoint (higher = more stable): 4.85 M
[1]
  Tm: 68.7 °C
  change of melting temperature, mutant - wild type (higher = more stable): -0.3 °C
[2]
  Tm: 65.5 °C
  change of melting temperature, mutant - wild type (higher = more stable): -0.7 °C

## P327R
pH 7
  denaturant midpoint (higher = more stable): 4.56 M
[1]
  Tm: 64 °C
  change of melting temperature, mutant - wild type (higher = more stable): -5 °C
